Assay results: PMC5593996

What was measured:
[1] = target: second RNA-recognition motif (RRM2) of TDP-43, wild type, residues 191-265 (human) (UniProt Q13148); experiment: NMR HSQC peak intensities (fraction of globular monomer); reduced samples: first treated with 5 mM H2O2, then with 25 mM DTT
Q13148 [2] = experiment: as above; settings: other: NMR HSQC peak intensities (fraction of globular monomer)
[3] = target: second RNA-recognition motif (RRM2) of TDP-43, wild type, residues 191-265 (human) (UniProt Q13148); experiment: cross-linking; disulfide-linked oligomers on non-reducing SDS-PAGE (14% tris-glycine, Coomassie, densitometry); 1 mM protein incubated 2 h with 5 mM H2O2
Q13148 [4] = experiment: dynamic light scattering + other: pulsed-field-gradient NMR diffusion; fully oxidized sample (5 mM H2O2, about 31 h); size distribution of aggregate particles fitted to both diffusion coefficients (Eq. 6), NMR on peak N265'
[5] = target: second RNA-recognition motif (RRM2) of TDP-43, wild type, residues 191-265 (human) (UniProt Q13148); experiment: NMR HSQC peak intensities (fraction of globular monomer); 1 mM RRM2 under oxidation with 5 mM H2O2 (2 h or 24 h); loss of monomer signals taken as conversion into oligomers and aggregate particles; standard phosphate buffer pH 6.7
Q13148 [6] = experiment: as above; settings: other: NMR HSQC peak intensities (fraction of globular monomer)

percent monomer in the reduced samples [1]: 84% | fraction of cross-linked protein molecules (gel densitometry, 2 h with 5 mM H2O2) [3]: 40% | percent (mass fraction) left as globular monomer after 24 h with 5 mM H2O2 [5]: 4.5% | percent left as globular monomer after 2 h with 5 mM H2O2 [5]: 40%
B1: second RNA-recognition motif (RRM2) of TDP-43, wild type, residues 191-265 (protein)
chain: MRKVFVGRCTEDMTEDELREFFSQYGDVMDVFIPKPFRAFAFVTFADDQIAQSLCGEDLIIKGISVHISNAEPKHN
percent of protein mass still aggregated after 2 h oxidation and 3 h reduction (Q13148 [2]): ca. 19% of the protein by mass remains in the aggregate form | percent of protein mass still aggregated after 24 h oxidation and 24 h reduction (Q13148 [2]): ca. 40% of the protein mass in this sample remains in the aggregated state | mass fraction of the aggregate mass in all other aggregate particles (Q13148 [4]): all other APs combined account for 83% of the aggregate mass | mass fraction of the aggregate mass that is disulfide-bonded dimers (Q13148 [4]): The mass fraction of the disulfide-bonded dimers is 17% | percent of the protein in aggregate particles after 2 h with 5 mM H2O2 (Q13148 [6]): 60% (±4%) of the protein has been transformed into APs
